Results as given in the supplement of paper PMC10567573.

B1: TRIB1 (parent)
chain: SYVRSRKRLREEEAARLFKQIVSA
B2: CD207 (parent)
chain: MTVEKEAPDAHFTVDKQNISLWPR

Variants of: B1
Experiment: protein stability index of a GFP-peptide fusion (GPS, HEK-293T) (PSI 1-6); higher = more stable
Conditions: c terminus: a fixed tail appended
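Also: lentivirally expressed fusions sorted by FACS into six bins by GFP to DsRed ratio, PSI derived from sequencing read proportions per bin multiplied by bin number.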

Variant	protein stability index
R8V	2.37
V3I	1.69
V3L	2.08
L17V	2.98
L17G	3.72
V22D	3.22
V22I	2.94
V22S	2.62
L9I	3.23
K19T	2.04
R16E	2.87
F18M	3.34
E13K	2.94
E13S	2.05
S1D	1.88
S1R	1.95
A15P	3.43

Variant	protein stability index
A24W	2
A24F	2.26
A24C	2.99
Q20H	1.54
Q20E	2.4
R4C	1.7
R10T	2.67
R10W	2.12
R10Q	2.22
E12Y	2.37
E12C	1.76
E11P	1.85
E11A	2.05
A14F	2.34
R6M	1.54
R6L	1.85

Variants of: B2
Experiment: as above
Conditions: c terminus: a fixed tail appended

Variant	protein stability index
K16W	2
K16Y	2.83
K16P	3.26
K16H	3.53
K16F	2.95
K16I	2.39
K16C	3.76
K16L	2.62
K16D	3.35
K16E	4.13
K16Q	3.01
K16V	2.93
K16N	3.49
K16M	2.83
K16S	3.79
K16A	3.52
K16R	3.26
K16T	3.18
K16G	3.8
A10Y	3.3
A10W	2.4
A10M	2.31
A10P	3.01
A10V	2.91
A10F	2.84
A10Q	3.46

Variant	protein stability index
A10D	3.56
A10C	3.77
A10G	3.75
A10L	2.91
A10S	3.5
A10I	2.21
A10R	2.48
A10E	4.07
A10T	3.83
A10N	3.23
A10H	3.76
A10K	3.09
P8N	3.48
P8T	3.17
P8Y	2.6
P8V	2.86
P8Q	3.24
P8S	3.65
P8W	1.93
P8R	3.71
N18K	3.4
N18P	3.39
N18D	3.21
N18V	2.29
N18Y	2.97
N18F	3

Variant	protein stability index
N18H	3.46
N18W	2.05
N18L	2.88
N18R	3.14
N18T	3.62
N18Q	2.86
N18C	2.44
N18E	3.34
N18S	3.56
N18A	4.24
N18G	3
N18M	3.5
N18I	1.95
I19V	3.98
I19G	3.13
I19N	4.39
I19C	3.76
I19F	4.08
I19R	3.99
I19Y	3.41
I19P	4
I19T	3.79
I19Q	3.84
I19H	4.29
I19L	3.35
I19A	4.25

Variant	protein stability index
I19D	4.22
I19S	3.45
I19E	4.47
I19K	4.35
I19M	3.67
T13K	3.61
T13I	3.49
T13W	2.54
T13D	3.96
T13N	3.63
T13S	3.8
T13Q	3.43
T13F	3.13
T13P	3.19
T13R	2.66
T13H	3.03
T13C	3.2
T13Y	3.59
T13V	3.42
T13L	4.19
T13G	3.04
T13M	3.12
T13A	3.53
R24L	2.95
R24Q	3.97
R24V	3.07

Variant	protein stability index
R24K	3.87
R24M	2.24
R24C	3.16
R24A	3.98
R24H	3.69
R24I	2.9
R24F	3.42
R24N	4.12
R24Y	2.83
R24W	2.78
R24E	4.83
R24T	3.63
R24G	3.72
R24P	3.28
R24S	3.57
R24D	4.53
D15R	3.06
D15Q	3.17
D15S	3.61
D15K	2.81
D15F	2.06
D15Y	1.98
D15E	3.51
D15M	2.67
D15C	3.35
D15H	2.48

Variant	protein stability index
D15P	2.74
D15A	3.35
D15N	2.54
D15T	2.74
D15I	2.31
D15G	2.92
L21Q	3.85
L21M	3.81
L21S	3.53
L21I	3.79
L21T	3.01
L21D	4.22
L21H	4.06
L21V	3.09
L21W	3.12
L21P	4.11
L21R	3.7
L21K	3.72
L21N	3.43
L21F	3.25
L21Y	3.39
L21C	3.64
P23A	3.39
P23K	3.69
P23L	2.62
P23Q	3.14

Variant	protein stability index
P23E	3.84
P23F	2.71
P23R	3.43
P23T	2.93
P23H	2.9
P23M	2.84
P23W	2.52
P23S	2.64
P23G	3
P23I	2.91
P23Y	2.62
P23D	4.51
P23C	2.69
P23N	3.82
V14L	2.93
V14W	2.65
V14M	3.18
V14R	3.05
V14K	3.41
V14E	3.79
V14D	4.11
V14F	2.42
V14A	3.45
V14P	3.79
V14I	3.45
V14N	3.36

Variant	protein stability index
V14H	3.13
V14T	3.82
V14S	3.81
V14Q	3.85
V14Y	2.48
V14C	3.27
V14G	2.35
Q17I	2.48
Q17W	1.56
Q17L	2.64
Q17S	2.31
Q17M	2.15
Q17C	2.8
Q17N	2.97
Q17E	3.26
Q17K	3.36
Q17P	3.21
Q17T	3.14
Q17R	2.76
Q17A	3.66
Q17H	3.05
Q17F	1.89
Q17D	3.73
Q17V	2.39
Q17Y	1.94
Q17G	3.38

Variant	protein stability index
W22H	4.21
W22G	4.35
W22D	4.85
W22Y	3.83
W22K	4.99
W22Q	4.29
W22S	4.69
W22N	4.4
W22E	5.08
W22V	4.32
W22F	3.91
W22P	4.64
W22R	4.1
W22A	4.63
W22T	4.34
W22L	4.42
W22I	4.73
W22C	4.08
W22M	4.19
F12S	4.1
F12V	3.74
F12I	3.96
F12P	4.66
F12G	4.03
F12M	4.14
F12Y	3.16

Variant	protein stability index
F12H	4.02
F12E	4.38
F12K	4.05
F12W	3.35
F12R	4.04
F12T	4.09
F12Q	4.5
F12D	4.92
F12N	3.13
F12C	3.72
F12L	3.72
F12A	3.78
H11W	1.97
H11L	3
H11E	4.08
H11Q	2.95
H11Y	2.28
H11A	3.38
H11G	3.06
H11I	2.89
H11S	3.58
H11M	2.88
H11T	3.8
H11N	3.68
H11P	3.55
H11R	2.79

Variant	protein stability index
H11C	3.01
H11D	3.58
H11K	3.4
H11V	3.55
D9S	3.25
D9N	3.27
D9R	3.13
D9W	2.91
D9C	3.01
D9I	2.19
D9F	2.37
D9A	2.79
D9T	2.94
D9L	2.38
D9H	2.89
D9M	2.56
D9K	2.44
D9P	2.95
D9E	3.15
D9G	3.05
D9Y	2.42
D9Q	3.23
S20E	3.33
S20C	3.39
S20F	3.04
S20K	3.55

Variant	protein stability index
S20R	3.3
S20T	3.43
S20L	2.48
S20I	2.66
S20N	3.07
S20P	3.3
S20Y	2.69
S20D	4.04
S20Q	3.1
S20W	2.96
S20V	2.71
S20A	3.3
S20G	3.29
S20M	2.81
S20H	3.2
